PMC6232179

Molecular target: His-tagged ER luminal domain of IRE1α (IRE1-NLD-His6-KDEL)
Test: SPR; IRE1-NLD amine-coupled on a CM5 chip (~1500 RU); COX-2 flowed at 0 to 10000 nM in 10 mM Hepes pH 7.4, 150 mM NaCl, 0.005% P20, 30 µl/min; BIACore T200; triplicate

- Kd: 880 nM
B1: COX-2 (prostaglandin endoperoxide synthase 2, PTGS2), purified His-tagged protein (enzyme)
chain: ANPCCSHPCQNRGVCMSVGFDQYKCDCTRTGFYGENCSTPEFLTRIKLFLKPTPNTVHYILTHFKGFWNVVNNIPFLRNAIMSYVLTSRSHLIDSPPTYNADYGYKSWEAFSNLSYYTRALPPVPDDCPTPLGVKGKKQLPDSNEIVEKLLLRRKFIPDPQGSNMMFAFFAQHFTHQFFKTDHKRGPAFTNGLGHGVDLNHIYGETLARQRKLRLFKDGKMKYQIIDGEMYPPTVKDTQAEMIYPPQVPEHLRFAVGQEVFGLVPGLMMYATIWLREHNRVCDVLKQEHPEWGDEQLFQTSRLILIGETIKIVIEDYVQHLSGYHFKLKFDPELLFNKQFQYQNRIAAEFNTLYHWHPLLPDTFQIHDQKYNYQQFIYNNSILLEHGITQFVESFTRQIAGRVAGGRNVPPAVQKVSQASIDQSRQMKYQSFNEYRKRFMLKPYESFEELTGEKEMSAELEALYGDIDAVELYPALLVEKPRPDAIFGETMVEVGAPFSLKGLMGNVICSPAYWKPSTFGGEVGFQIINTASIQSLICNNVKGCPFTSFSVPDPELIKTVTINASSSRSGLDDINPTVLLKERSTEL
modifications: red fluorescent tag, covalently labelled (only in the MST of Figure 4B)
